Data published in US10835608B2, “Polymer-carbohydrate conjugates for drug delivery technology” (priority 2013, dated 2020).

Assays:
[1] = Solubility study of propofol: minimum conjugate concentration required to solubilize propofol; type: physicochemical; conditions: 1% (w/v) propofol in saline based solution
Excerpt: Table 15 listed the minimum concentration of the conjugates required to solubilize propofol as a solubility test reference.

[2] = Solubility study of voriconazole: minimum polymer to drug ratio required to solubilize voriconazole; conditions: 1% (w/v) voriconazole in saline based solution
Procedure: 1% (w/v) of voricazole was prepared in a saline based solution with different PEG-carbohydrate conjugates.

Row | Substance | Concentration (minimum concentration of the conjugate required to solubilize propofol) [1] | also measured
1 | Cholecalciferol-diethylene-triamineisomal-totriose-mPEG11 | 2.2 % w/v | 
2 | Cholesterypropanediamineascorbate-mPEG11 | 4.6 % w/v | 
3 | Cholesterypropanediaminegluconate-mPEG11 | 5.3 % w/v | Conjugate concentration needed to solubilize propofol, comparison in words [1]: much high conjugate concentration was required
4 | Cholesterypropanediamineisomaltotriose-mPEG11 | 2.0 % w/v | 
5 | Cholesterypropanediaminelactobionate-mPEG11 | 3.2 % w/v | 
6 | Cholesterytriethylenetetraminelactobionate-di-mPEG11 | 1.6 % w/v | 
7 | N,N,N-oleoyl-lactobionoyl-mPEG(12)propanediamine |  | Polymer concentration needed to solubilize voriconazole, comparison in words [2]: much high concentration; Solubilizing Voriconazole (min. polymer to drug ratio) [2]: 20
8 | Retinoylpropanediaminelactobionate-mPEG11 | 2.9 % w/v | 
9 | Tocopherylpropanediaminelactobionate-mPEG11 | 3.3 % w/v | Conjugate concentration needed to solubilize propofol, comparison in words [1]: the lowest molar concentration
